This sample holds only a part of the variants without activity.
How the values were obtained:
biotinyl-Leu-oxazolone = experiment: self-aminoacylation, catalytic enhancement (BLO) (fold over background); higher = more active; k-Seq, kA / k0A0; sequences stand for … in GGGAAUGGAUCCACAUCUACGAAUUC…UUCACUGCAGACUUGACGAAGCUG
How it was run: (§1)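 Mutagenized RNA pools (0.43 μM; 21-nt variable region) were treated with 2–1250 μM of each biotinyl-aminoacyl-oxazolone. Conditions were 50 μL HEPES/NaCl/KCl/MgCl2/CaCl2 buffer, 5% acetonitrile, pH 6.9–7.0, room temperature, 90 minutes. Catalytic enhancement, the median kA relative to the uncatalyzed rate, was derived from streptavidin capture, qPCR and Illumina sequencing.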

biotinyl-Ile-oxazolone = experiment: self-aminoacylation, catalytic enhancement (BIO) (fold over background); higher = more active; k-Seq, kA / k0A0; sequences stand for … in GGGAAUGGAUCCACAUCUACGAAUUC…UUCACUGCAGACUUGACGAAGCUG
How it was run: as §1

biotinyl-Met-oxazolone = experiment: self-aminoacylation, catalytic enhancement (BMO) (fold over background); higher = more active; k-Seq, kA / k0A0; sequences stand for … in GGGAAUGGAUCCACAUCUACGAAUUC…UUCACUGCAGACUUGACGAAGCUG
How it was run: as §1

biotinyl-Phe-oxazolone = experiment: self-aminoacylation, catalytic enhancement (BFO) (fold over background); higher = more active; k-Seq, kA / k0A0; sequences stand for … in GGGAAUGGAUCCACAUCUACGAAUUC…UUCACUGCAGACUUGACGAAGCUG
How it was run: as §1

biotinyl-Val-oxazolone = experiment: self-aminoacylation, catalytic enhancement (BVO) (fold over background); higher = more active; k-Seq, kA / k0A0; sequences stand for … in GGGAAUGGAUCCACAUCUACGAAUUC…UUCACUGCAGACUUGACGAAGCUG
How it was run: as §1

biotinyl-Trp-oxazolone = experiment: self-aminoacylation, catalytic enhancement (BWO) (fold over background); higher = more active; k-Seq, kA / k0A0; sequences stand for … in GGGAAUGGAUCCACAUCUACGAAUUC…UUCACUGCAGACUUGACGAAGCUG
How it was run: as §1

Sequence | self-aminoacylation (biotinyl-Leu-oxazolone) | self-aminoacylation (biotinyl-Ile-oxazolone) | self-aminoacylation (biotinyl-Met-oxazolone) | self-aminoacylation (biotinyl-Phe-oxazolone) | self-aminoacylation (biotinyl-Val-oxazolone) | self-aminoacylation (biotinyl-Trp-oxazolone)
AGGUUUGCUAAUAGUCCCAAG [Fam3.1 aminoacylation ribozyme variant] | 0.779 | 0.901 | 0.915 | 4.38 | 0.872 | 1.97
AGGUUUGCUAAUAGUCGCAAG [Fam3.1 aminoacylation ribozyme variant] | 1.41 | 1.56 | 1.75 | 22 | 1.38 | 6.61
AGGUUUGCUAAUAGUCGCAGG [Fam3.1 aminoacylation ribozyme variant] | 1.7 | 1.97 | 2.21 | 4.15 | 1.52 | 1.99
AGGUUUGCUAAUAGUCGCCAG [Fam3.1 aminoacylation ribozyme variant] | 1.52 | 1.39 | 1.51 | 1.14 | 1.35 | 2.22
AGGUUUGCUAAUAGUCGCGAG [Fam3.1 aminoacylation ribozyme variant] | 1.61 | 1.56 | 1.65 | 2.48 | 1.78 | 2.59
AGGUUUGCUAAUAGUCGUAAG [Fam3.1 aminoacylation ribozyme variant] | 1.1 | 1.22 | 1.23 | 29.2 | 1.08 | 7.24
AGGUUUGCUGAUAGUCGCAAG [Fam3.1 aminoacylation ribozyme variant] | 1.83 | 1.49 | 1.53 | 2.52 | 1.2 | 1.83
AGUAACCUGGUCAUCGAGUGA [Fam2.1 aminoacylation ribozyme variant] | 5.02 | 3.32 | 5.06 | 16.8 | 3.25 | 4.62
AGUACCCUGCUCAUCGAGUGA [Fam2.1 aminoacylation ribozyme variant] | 1.77 | 1.2 | 2.06 | 1.88 | 1.28 | 1.88
AGUACCCUGGGCAUCGAGUGA [Fam2.1 aminoacylation ribozyme variant] | 6.54 | 2.96 | 6.28 | 47 | 3.16 | 7.71
AGUACCCUGGUCACCGAGUGA [Fam2.1 aminoacylation ribozyme variant] | 9.52 | 4.52 | 8.83 | 54.5 | 4.11 | 11.1
AGUACCCUGGUCAUAGAGUGA [Fam2.1 aminoacylation ribozyme variant] | 4.1 | 2.33 | 4.15 | 15.4 | 2.48 | 4.67
AGUACCCUGGUCAUCGAGUGG [Fam2.1 aminoacylation ribozyme variant] | 4.23 | 2.26 | 5.15 | 6.94 | 2.65 | 4.19
AGUACCCUGGUCAUCGAGUGU [Fam2.1 aminoacylation ribozyme variant] | 13.6 | 5.14 | 14.2 | 29.9 | 5.27 | 11.7
AGUACCGUGGUCAUCGAGUGA [Fam2.1 aminoacylation ribozyme variant] | 5.87 | 3.61 | 5.19 | 24.1 | 3.39 | 5.99
AGUACCUUGGUCAUCGAGUGA [Fam2.1 aminoacylation ribozyme variant] | 6.37 | 4.3 | 6.27 | 19 | 4.07 | 8.17
AGUAGCCUGGUCAUCGAGUGA [Fam2.1 aminoacylation ribozyme variant] | 7.91 | 4.84 | 7.32 | 37.9 | 4.85 | 8.44
AGUCACCUAGGACAUCGGGUG [Fam2.2 aminoacylation ribozyme variant] | 4.11 | 4.13 | 4.24 | 26.6 | 5.02 | 6.31
AGUCACCUAGGUCAUCGGGUU [Fam2.2 aminoacylation ribozyme variant] | 7.09 | 4.28 | 5.25 | 21.7 | 4.18 | 4.8
AGUCACCUAGGUCUUCGGGUG [Fam2.2 aminoacylation ribozyme variant] | 8.46 | 6.51 | 6.75 | 56.4 | 6.48 | 8.99
AGUCACCUAUGUCAUCGGGUG [Fam2.2 aminoacylation ribozyme variant] | 4.74 | 3.74 | 4.37 | 31.8 | 3.19 | 4.85
AGUCACCUGGGUCAUCGGGUG [Fam2.2 aminoacylation ribozyme variant] | 4.04 | 4.56 | 3.98 | 35.4 | 4.96 | 5.64
AGUCACUUAGGUCAUCGGGUG [Fam2.2 aminoacylation ribozyme variant] | 6.96 | 4.65 | 5.12 | 46.1 | 4.36 | 5.93
AGUCGCCUAGGUCAUCGGGUG [Fam2.2 aminoacylation ribozyme variant] | 7.99 | 5.29 | 6.31 | 49 | 5.42 | 9.01
AUAAACCUAGGUCAUCGGGUG [Fam2.2 aminoacylation ribozyme variant] | 4.39 | 2.57 | 3.29 | 20.4 | 2.43 | 3.73
AUAACCCUGAUCAUCGAGUGA [Fam2.1 aminoacylation ribozyme variant] | 6.46 | 2.79 | 6.16 | 20.9 | 3.27 | 8.47

Sequence | self-aminoacylation (biotinyl-Leu-oxazolone) | self-aminoacylation (biotinyl-Ile-oxazolone) | self-aminoacylation (biotinyl-Met-oxazolone) | self-aminoacylation (biotinyl-Phe-oxazolone) | self-aminoacylation (biotinyl-Val-oxazolone) | self-aminoacylation (biotinyl-Trp-oxazolone)
AUAACCCUGGUCAGCGAGUGA [Fam2.1 aminoacylation ribozyme variant] | 5.25 | 3.52 | 4.66 | 25.1 | 2.92 | 6.19
AUAACCCUGGUCAUCGAGUGC [Fam2.1 aminoacylation ribozyme variant] | 2.44 | 1.33 | 1.96 | 4.44 | 1.42 | 1.89
AUAACCCUGGUCAUUGAGUGA [Fam2.1 aminoacylation ribozyme variant] | 8.57 | 3.89 | 8.67 | 36.7 | 3.82 | 10.2
AUAACCCUGGUCCUCGAGUGA [Fam2.1 aminoacylation ribozyme variant] | 3.52 | 1.91 | 2.77 | 13.1 | 1.79 | 3.38
AUAACCCUGGUUAUCGAGUGA [Fam2.1 aminoacylation ribozyme variant] | 8.11 | 3.74 | 8.37 | 38.8 | 3.44 | 8.28
AUAACCUUGGUCAUCGAGUGA [Fam2.1 aminoacylation ribozyme variant] | 6.06 | 2.94 | 5.95 | 27.1 | 3.3 | 7.25
AUAACUCUGGUCAUCGAGUGA [Fam2.1 aminoacylation ribozyme variant] | 5.36 | 3.06 | 5.54 | 19.5 | 3.04 | 6.33
AUACACCCAGGUCAUCGGGUG [Fam2.2 aminoacylation ribozyme variant] | 4.64 | 3.78 | 5.29 | 32.7 | 3.3 | 5.99
AUACACCUAAGUCAUCGGGUG [Fam2.2 aminoacylation ribozyme variant] | 5.83 | 3.47 | 4.44 | 28.8 | 2.91 | 4.14
AUACACCUAGAUCAUCGGGUG [Fam2.2 aminoacylation ribozyme variant] | 2.73 | 1.85 | 3 | 7.92 | 1.69 | 3.43
AUACACCUAGGACAUCGGGUG [Fam2.2 aminoacylation ribozyme variant] | 2.82 | 2.73 | 2.98 | 14.1 | 2.79 | 5.32
AUACACCUAGGUCAUCGGAUG [Fam2.2 aminoacylation ribozyme variant] | 0.994 | 1.03 | 0.978 | 0.387 | 0.946 | 0.96
AUACACCUAGGUCAUCUGGUG [Fam2.2 aminoacylation ribozyme variant] | 1.68 | 1.4 | 1.56 | 4.68 | 1.23 | 1.41
AUACACCUAUGUCAUCGGGUG [Fam2.2 aminoacylation ribozyme variant] | 3.86 | 2.46 | 3.42 | 17.3 | 2.52 | 3.58
AUACACCUCGGUCAUCGGGUG [Fam2.2 aminoacylation ribozyme variant] | 3.14 | 2.82 | 3.08 | 23.3 | 3.18 | 3.09
AUACGCCUAGGUCAUCGGGUG [Fam2.2 aminoacylation ribozyme variant] | 7.77 | 4.85 | 7.57 | 36 | 4.07 | 7.38
AUACUUCAAACAAUCAGUCUG [Fam1A.1 aminoacylation ribozyme variant] | 0.979 | 0.975 | 0.823 | 9.06 | 1.02 | 4.24
AUACUUCAAACAAUCGGUAUG [Fam1A.1 aminoacylation ribozyme variant] | 0.732 | 0.925 | 0.732 | 3.52 | 0.744 | 2.3
AUACUUCAAAUAAUCGGUCUG [Fam1A.1 aminoacylation ribozyme variant] | 0.998 | 0.992 | 0.965 | 5.26 | 0.877 | 4.17
AUACUUCAAUCAAUCGGUCUG [Fam1A.1 aminoacylation ribozyme variant] | 1.33 | 1.11 | 1.19 | 8.53 | 1.06 | 6.62
AUACUUCCAACAAUCGGUCUG [Fam1A.1 aminoacylation ribozyme variant] | 0.743 | 0.782 | 0.705 | 0.856 | 0.727 | 0.721
AUAGACCUAGGUCAUCGGGUG [Fam2.2 aminoacylation ribozyme variant] | 3.85 | 2.59 | 2.93 | 19.5 | 2.65 | 4.2
AUAUACCUAGGUCAUCGGGUG [Fam2.2 aminoacylation ribozyme variant] | 5.38 | 2.65 | 3.97 | 25.9 | 2.74 | 4.16
AUCAACCUGGUCAUCGAGUGA [Fam2.1 aminoacylation ribozyme variant] | 11.9 | 5.12 | 10 | 43.5 | 4.81 | 9.87
AUCACCCUGAUCAUCGAGUGA [Fam2.1 aminoacylation ribozyme variant] | 10.2 | 4.86 | 10.8 | 62.3 | 4.32 | 10.9

Source: the supplement of paper PMC9233669
